Numbered stars: 1 amine (or outer) side, 2 acyl side, 3 side chain; on linkers, the order of the positions; unused ones are H or OH. Square brackets hold non-standard residues; d marks the D form. Side chains are listed from the residue outwards. Ends that are not written are not given here. * marks the point of attachment. C18 diacid = O=C(O)CCCCCCCCCCCCCCCCC(=O)*; γGlu = O=C(O)[C@H](CCC(=O)[*:2])N[*:1]; AEEA = NCCOCCOCC(=O)O; Aib = CC(C)(N)C(=O)O
Columns and labels:
[1] = biological target: T1, human GLP-1 receptor (human, UniProt P43220 24-463); test: displacement of 125I-GLP-1(7-36)NH2, membranes with human GLP-1R, SPA
T1 construct: whole, on cells; the potency assay used whole cells (clone FCW467-12A/KZ10-1)
Protocol: (§1) The receptor binding of each compound to the human GLP-1 receptor was measured in a displacement binding assay. […] Each derivative was added in a series of concentrations to isolated membranes containing the human GLP-1 receptor and displacement of the labelled ligand was monitored. The receptor binding was reported as the concentration at which half of the labelled ligand was displaced from the receptor, the IC₅₀ value.

[2] = biological target: T2, human glucagon receptor (human, UniProt P47871 26-477); test: displacement of 125I-glucagon, membranes with human glucagon receptor, SPA
T2 construct: whole, on cells; the potency assay used whole cells (clone pLJ6'-4-25); also called GlucR; hGCGR
Protocol: as §1, with “human glucagon” for “human GLP-1”, “ligand is” for “ligand was”

[3] = biological target: T2, human glucagon receptor; test: cell-based or functional assay
[4] = biological target: T1, human GLP-1 receptor; test: cell-based or functional assay

T2 sequence (P47871 26-477): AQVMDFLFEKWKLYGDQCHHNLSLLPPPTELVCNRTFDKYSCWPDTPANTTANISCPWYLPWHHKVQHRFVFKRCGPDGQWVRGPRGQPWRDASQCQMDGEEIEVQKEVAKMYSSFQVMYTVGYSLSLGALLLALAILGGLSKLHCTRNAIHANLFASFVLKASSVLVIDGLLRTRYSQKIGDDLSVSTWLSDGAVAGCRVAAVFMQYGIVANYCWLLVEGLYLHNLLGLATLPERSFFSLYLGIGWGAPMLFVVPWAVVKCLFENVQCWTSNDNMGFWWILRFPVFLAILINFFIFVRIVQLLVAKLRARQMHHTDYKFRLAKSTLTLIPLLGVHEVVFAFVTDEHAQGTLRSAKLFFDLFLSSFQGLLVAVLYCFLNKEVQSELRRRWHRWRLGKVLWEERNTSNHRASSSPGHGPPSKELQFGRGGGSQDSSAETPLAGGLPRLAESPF

B1: N^ε28-[(4S)-4-carboxy-4-[[(4S)-4-carboxy-4-[[2-[2-[2-[[2-[2-[2-[[(4S)-4-carboxy-4-(17-carboxyheptadecanoylamino)butanoyl]amino]ethoxy]ethoxy]acetyl]amino]ethoxy … (peptide)
peptide: H[Aib]QGTFTSDLSKYLD[Aib]RRAREFVQWLLK([γGlu-γGlu-AEEA-AEEA-γGlu-C18 diacid])T-NH2
modifications: N-terminus assumed
SMILES: CC(C)C[C@H](NC(=O)[C@H](Cc1c[nH]c2ccccc12)NC(=O)[C@H](CCC(N)=O)NC(=O)[C@@H](NC(=O)[C@H](Cc1ccccc1)NC(=O)[C@H](CCC(=O)O)NC(=O)[C@H](CCCNC(=N)N)NC(=O)[C@H](C)NC(=O)[C@H](CCCNC(=N)N)NC(=O)[C@H](CCCNC(=N)N)NC(=O)C(C)(C)NC(=O)[C@H](CC(=O)O)NC(=O)[C@H](CC(C)C)NC(=O)[C@H](Cc1ccc(O)cc1)NC(=O)[C@H](CCCCN)NC(=O)[C@H](CO)NC(=O)[C@H](CC(C)C)NC(=O)[C@H](CC(=O)O)NC(=O)[C@H](CO)NC(=O)[C@@H](NC(=O)[C@H](Cc1ccccc1)NC(=O)[C@@H](NC(=O)CNC(=O)[C@H](CCC(N)=O)NC(=O)C(C)(C)NC(=O)[C@@H](N)Cc1c[nH]cn1)[C@@H](C)O)[C@@H](C)O)C(C)C)C(=O)N[C@@H](CC(C)C)C(=O)N[C@@H](CCCCNC(=O)CC[C@H](NC(=O)CC[C@H](NC(=O)COCCOCCNC(=O)COCCOCCNC(=O)CC[C@H](NC(=O)CCCCCCCCCCCCCCCCC(=O)O)C(=O)O)C(=O)O)C(=O)O)C(=O)N[C@H](C(N)=O)[C@@H](C)O
Question: B1 was tested. Which IC50 [1] did it give?
Answer: 0.7 nM

Question: What about the IC50 [2] of the same binder?
Answer: 1.4 nM

Question: What about the “EC50 GlucR, CRE luciferase reporter gene assay in BHK cells” value [3] of the same binder?
Answer: 0.004 nM

Question: What about the “EC50 GLP-1R, CRE luciferase reporter gene assay in BHK cells” value [4] of the same binder?
Answer: 0.006 nM
